Substitutions are numbered along the chain they refer to.
B1: SAD10320_P01_A02 (ADI-48646) (antibody, V domains shown)
VH: QVQLVQSGAEVKKPGASVKVSCKASGFNIKDYYMHWVRQAPGQRLEWMGWIDLENANTIYDAKFQGRVTITRDTSASTAYMELSSLRSEDTAVYYCARDAYPHYFYDVWGQGTLVTVSS
VL: DIVMTQSPDSLAVSLGERATINCKSSQSLLNARTGKNYLAWYQQKPGQPPKLLIYWASTRESGVPDRFSGSGSGTDFTLTISSLQAEDVAVYYCKQSYHERTFGGGTKVEIK
notes: IgG; also called Ab53
B2: SAD10319_P01_C01 (ADI-48621) (antibody, V domains shown)
VH: QVQLVQSGAEVKKPGASVKVSCKASGYTFTDYDMHWVRQAPGQRLEWMGWIDAGTGLTKYSQKFQGRVTITRDTSASTAYMELSSLRSEDTAVYYCARDHYGHYFYDVWGQGTLVTVSS
VL: B1 VL with H99S, E100R
notes: IgG; also called Ab230
B3: SAD10319_P01_F02 (ADI-48624) (antibody, V domains shown)
VH: B2 VH with T30E, D31S, L57N, R72A, T74E, A76T
VL: B1 VL with H99S, E100R
notes: IgG; also called Ab241
B4: SAD10318_P03_E09 (ADI-48611) (antibody, V domains shown)
VH: QVQLVQSGAEVKKPGASVKVSCKASGFNIKDYYMHWVRQAPGQRLEWMGWIDLENANTIYDAKFQGRVTITRDTSASTAYMELSSLRSEDTAVYYCARDAYGHYHYDVWGQGTLVTVS
VL: B1 VL with K36H, Y38H, E100H
notes: IgG; also called Ab207
B5: SAD10318_P02_C05 (ADI-48597) (antibody, V domains shown)
VH: B1 VH with Y101H, P102H, H103R
VL: DIVMTQSPDSLAVSLGERATINCKSSQSLLNARTGHNHLAWYQQKPGQPPKLLIYWASTRESGVPDRFSGSGSGTDFTLTISSLQAEDVAVYYCKQSHSHRTFGGGTKVEI
notes: IgG; also called Ab180
B6: SAD10319_P01_H02 (ADI-48625) (antibody, V domains shown)
VH: B2 VH with D33A, D52N, A53P, G54S, L57A, K59V, H100A, G102H
VL: B1 VL with H99S, E100R
notes: IgG; also called Ab242
B7: SAD10319_P01_H01 (ADI-48623) (antibody, V domains shown)
VH: B2 VH with T30D, D33A, L57D, G102H, H103R
VL: B1 VL with H99S, E100R
notes: IgG; also called Ab235
B8: SAD10319_P01_A01 (ADI-48619) (antibody, V domains shown)
VH: B2 VH with T30A, D31S, D33A, D52N, A53P, G54D, L57N, K59V, H100A, G102H
VL: B1 VL with H99S, E100R
notes: IgG; also called Ab229
B9: SAD10320_P03_F09 (ADI-48656) (antibody, V domains shown)
VH: B1 VH with P102G, Y104D
VL: B1 VL with E100R
notes: IgG; also called Ab101
B10: SAD10320_P02_F05 (ADI-48651) (antibody, V domains shown)
VH: B1 VH with P102G, H103R, F105H
VL: B1 VL with H99R, E100H
notes: IgG; also called Ab79
B11: SAD10320_P04_G10 (ADI-48658) (antibody, V domains shown)
VH: B1 VH with P102G, Y104D
VL: B1 VL with H99S, E100R
notes: IgG; also called Ab108
B12: SAD10320_P02_C04 (ADI-48648) (antibody, V domains shown)
VH: B1 VH with P102G, H103R
VL: B1 VL with Y98H, H99T, E100R
notes: IgG; also called Ab71
B13: SAD10320_P03_D09 (ADI-48655) (antibody, V domains shown)
VH: B1 VH with P102G, Y104D
VL: B1 VL with Y98W, E100R
notes: IgG; also called Ab100
B14: SAD10320_P02_C06 (ADI-48654) (antibody, V domains shown)
VH: B1 VH with P102G, H103R
VL: B1 VL with Y98G, E100R
notes: IgG; also called Ab84
B15: SAD10320_P02_B06 (ADI-48653) (antibody, V domains shown)
VH: B1 VH with P102G, Y104W
VL: B1 VL with E100H
notes: IgG; also called Ab83
B16: SAD10320_P02_D05 (ADI-48650) (antibody, V domains shown)
VH: B1 VH with Y101T, P102H, H103R
VL: B5 VL with H36K, H38Y, S99T, H100R
notes: IgG; also called Ab77
B17: SAD10320_P01_E01 (ADI-48645) (antibody, V domains shown)
VH: B1 VH with P102G, Y104V
VL: B1 VL with H99K, E100H
notes: IgG; also called Ab49
B18: SAD10320_P01_D01 (ADI-48644) (antibody, V domains shown)
VH: B1 VH with P102G, Y104G
VL: B1 VL with H99S, E100H
notes: IgG; also called Ab48
B19: SAD10320_P01_B01 (ADI-48643) (antibody, V domains shown)
VH: B1 VH with P102G, Y104I
VL: B1 VL with H99V, E100H
notes: IgG; also called Ab46
B20: SAD10320_P04_H11 (ADI-48662) (antibody, V domains shown)
VH: B1 VH with P102G, Y104V
VL: B1 VL with H99Q, E100H
notes: IgG; also called Ab116
B21: SAD10320_P01_F03 (ADI-48647) (antibody, V domains shown)
VH: B1 VH
VL: B1 VL with H99L, E100H
notes: IgG; also called Ab65
B22: SAD10320_P02_H05 (ADI-48652) (antibody, V domains shown)
VH: B1 VH with Y101H, P102H, H103R
VL: B1 VL with Y98H, H99S, E100R
notes: IgG; also called Ab81
B23: SAD10320_P02_E04 (ADI-48649) (antibody, V domains shown)
VH: B1 VH with P102H, H103E
VL: B1 VL with Y98H, H99V, E100R
notes: IgG; also called Ab72
B24: SAD10320_P04_E10 (ADI-48657) (antibody, V domains shown)
VH: B1 VH with L45P, P102G, Y104D
VL: B1 VL with H99S, E100R
notes: IgG; also called Ab106

Experiments:
[1] = biological target: T1, human CD3 on CD3+ Jurkat cells (human, UniProt P07766 23-207); test: flow cytometry, 100 nM IgG on CD3+ Jurkat cells, pH 6.0
T1 construct: whole, on cells; Native CD3 complex on cells; the other CD3 chains are not specified for this assay; also called Human CD3+ Jurkat
T1 sequence (P07766 23-207): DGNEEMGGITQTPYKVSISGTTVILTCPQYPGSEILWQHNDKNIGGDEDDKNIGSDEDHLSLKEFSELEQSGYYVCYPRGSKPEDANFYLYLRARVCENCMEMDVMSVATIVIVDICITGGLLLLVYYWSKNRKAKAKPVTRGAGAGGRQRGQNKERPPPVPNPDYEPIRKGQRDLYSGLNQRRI
Summary of the method: (§1)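 Jurkat cells incubated 20 min on ice with 100 nM yeast-produced IgG in PBS + 0.1% BSA at pH 6.0 or pH 7.4, with all washes and staining at the same pH. Bound antibody detected with anti-human IgG-RPE, dead cells excluded by propidium iodide; MFI measured by flow cytometry.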

[2] = biological target: T1, human CD3 on CD3+ Jurkat cells; test: flow cytometry, 100 nM IgG on CD3+ Jurkat cells, pH 7.4
Summary of the method: as §1

[3] = biological target: T1, human CD3 on CD3+ Jurkat cells; test: flow cytometry on CD3+ Jurkat cells, ratio of MFI at pH 6.0 to pH 7.4
Summary of the method: as §1

| Binder | MFI pH 6.0 [1] | MFI pH 7.4 [2] | MFI pH 6.0/MFI pH 7.4 [3] |
| --- | --- | --- | --- |
| B1 | 1270 MFI | 53 MFI | 24.1 |
| B2 | 731 MFI | 49 MFI | 14.8 |
| B3 | 895 MFI | 58 MFI | 15.4 |
| B4 | 123 MFI | 47 MFI | 2.6 |
| B5 | 1320 MFI | 61 MFI | 21.7 |
| B6 | 1730 MFI | 128 MFI | 13.6 |
| B7 | 1760 MFI | 147 MFI | 12 |
| B8 | 1750 MFI | 129 MFI | 13.5 |
| B9 | 185 MFI | 38 MFI | 4.9 |
| B10 | 5620 MFI | 4110 MFI | 1.4 |
| B11 | 113 MFI | 316 MFI | 0.4 |
| B12 | 6160 MFI | 5140 MFI | 1.2 |
| B13 | 1180 MFI | 581 MFI | 2 |
| B14 | 5590 MFI | 4890 MFI | 1.1 |
| B15 | 3110 MFI | 1030 MFI | 3 |
| B16 | 6010 MFI | 5430 MFI | 1.1 |
| B17 | 450 MFI | 41 MFI | 11.1 |
| B18 | 860 MFI | 124 MFI | 6.9 |
| B19 | 4200 MFI | 265 MFI | 15.9 |
| B20 | 81 MFI | 44 MFI | 1.8 |
| B21 | 4340 MFI | 141 MFI | 30.9 |
| B22 | 5750 MFI | 4760 MFI | 1.2 |
| B23 | 2320 MFI | 639 MFI | 3.6 |
| B24 | 786 MFI | 67 MFI | 11.7 |

Reference: patent publication US20220380463A1 (Adimab, published 2022)
